In US20260102505A1, “ANTI-CD45-IGN ANTIBODY DRUG CONJUGATES AND USES THEREOF” (Vor Biopharma Inc., priority 2022, published 2026) one finds receptor occupancy (RO) and % Receptor Occupancy (T-cells @ 24h) data, which are given here for 1 molecule.

The target in assay [1] is CD45 of non-human primate (NHP), on cells in vivo (non-human primate (NHP); not stated further). The assay can be described thus: in vivo receptor occupancy in NHP at the minimum efficacious dose of 0.15 mg/kg.
For assay [2] the target is unchanged. The assay can be described thus: in vivo receptor occupancy on T cells at 24 h after a single dose of 0.60 mg/kg in NHP, n=3.
Assay [3] has the same target. The assay can be described thus: in vivo receptor occupancy on T cells at 24 h after a single dose of 0.05 mg/kg in NHP, n=3; footnote: * % RO measured after ADC clearance.
For assay [4] the target is unchanged. The assay can be described thus: in vivo receptor occupancy on T cells at 24 h after a single dose of 0.20 mg/kg in NHP, n=3; footnote: * % RO measured after ADC clearance.
The target is the same in assay [5]. As to the kind of experiment: in vivo receptor occupancy on T cells at 24 h after a single dose of 0.10 mg/kg in NHP, n=6; footnote: * % RO measured after ADC clearance.
Assay [6] has the same target. As to the kind of experiment: in vivo receptor occupancy on T cells at 24 h after a single dose of 0.30 mg/kg in NHP, n=6.

B1: anti-CD45 ADC comprising anti-CD45 Ab5 conjugated to DGN-549 via cysteines at amino acid 265 (EU numbering by Kabat) in the Fc region, protease-cleavable linker (antibody, human IgG1, kappa, L234A L235A, V domains shown)
VH: EVQLVESGGGLVQPGGSLRLSCAASGFTFEAYSMNWVRQAPGKGLEWVSYISLSGATIHYADSVKGRFTISRDNAKNSLYLQMNSLRAEDTAVYYCARGGQYYYTSSDYGEVAFDIWGQGTMVTVSS
VL: DIVMTQSPLSLPVTPGEPASISCRSSQSLVSSGYNYLDWYLQKPGQSPQLLIYFGSSRASGVPDRFSGSGSGTDFTLKISRVEAEDVGVYYCMQRRRTPWSFGGGTKVEIKR
modifications: DGN549 (IGN pseudo dimer) via a protease-cleavable linker on the engineered Cys at position 265 (EU numbering; D265C)
Regarding B1, the receptor occupancy (RO) in assay [1] is 5%. For the same molecule, the % Receptor Occupancy (T-cells @ 24h) came to 100% in assay [2]; 2% in assay [3]; 6% in assay [4]; 4% in assay [5]; 46% in assay [6].
